In US20250304643A1 (BAINAN BIOTECH, published 2025):
[ ]: non-standard residue; d: D form. The star is where a group is joined. C16 diacid = O=C(O)CCCCCCCCCCCCCCC(=O)*; Palmitoyl = CCCCCCCCCCCCCCCC(=O)*; Aib = CC(C)(N)C(=O)O

T1: human glucagon-like peptide-2 receptor (human, UniProt O95838 1-553)
T1 sequence (looked up): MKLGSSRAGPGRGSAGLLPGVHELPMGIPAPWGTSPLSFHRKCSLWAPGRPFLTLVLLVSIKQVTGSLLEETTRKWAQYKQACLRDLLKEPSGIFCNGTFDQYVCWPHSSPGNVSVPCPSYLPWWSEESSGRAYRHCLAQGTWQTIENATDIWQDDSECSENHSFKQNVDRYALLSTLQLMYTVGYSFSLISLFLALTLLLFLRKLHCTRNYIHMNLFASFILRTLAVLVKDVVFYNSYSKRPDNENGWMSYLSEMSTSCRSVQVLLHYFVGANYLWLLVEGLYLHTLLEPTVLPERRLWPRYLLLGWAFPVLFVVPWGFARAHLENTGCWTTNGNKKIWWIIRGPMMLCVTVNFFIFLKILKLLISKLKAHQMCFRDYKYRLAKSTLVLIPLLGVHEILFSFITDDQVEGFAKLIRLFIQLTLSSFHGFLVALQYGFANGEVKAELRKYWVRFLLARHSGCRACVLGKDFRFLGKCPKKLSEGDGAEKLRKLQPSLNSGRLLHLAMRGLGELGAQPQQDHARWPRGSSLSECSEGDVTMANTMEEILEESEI

T2: human glucose-dependent insulinotropic polypeptide receptor (human, UniProt P48546 22-466)
T2 sequence (looked up): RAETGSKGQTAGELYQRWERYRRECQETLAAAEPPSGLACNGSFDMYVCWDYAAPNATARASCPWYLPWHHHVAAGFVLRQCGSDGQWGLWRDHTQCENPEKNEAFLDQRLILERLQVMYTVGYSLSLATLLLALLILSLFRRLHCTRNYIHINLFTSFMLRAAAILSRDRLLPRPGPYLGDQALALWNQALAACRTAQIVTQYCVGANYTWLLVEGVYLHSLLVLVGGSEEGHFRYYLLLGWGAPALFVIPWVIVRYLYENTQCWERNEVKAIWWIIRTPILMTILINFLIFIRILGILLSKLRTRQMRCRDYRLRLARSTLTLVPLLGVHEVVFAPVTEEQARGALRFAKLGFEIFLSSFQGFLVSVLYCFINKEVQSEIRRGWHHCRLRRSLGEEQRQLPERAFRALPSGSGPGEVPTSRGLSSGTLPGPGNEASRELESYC


Columns and labels:
[1] = target: T1, human glucagon-like peptide-2 receptor; assay: cell-based or functional assay
[2] = target: T2, human glucose-dependent insulinotropic …; assay: cell-based or functional assay

Row | Binder | Efficacy GLP-2R [1] [%] | logEC50 GLP-2R [1] | Efficacy GIPR [2] [%]
1 | {C16 diacid}-H[Aib]DGTFISDYST[Aib]LDKLAARDFINWLIETKITK-OH (SMILES CC[C@H](C)[C@H](NC(=O)[C@H](Cc1ccccc1)NC(=O)[C@H](CC(=O)O)NC(=O)[C@H](CCCNC(=N)N)NC(=O)[C@H](C)NC(=O)[C@H](C)NC(=O)[C@H](CC(C)C)NC(=O)[C@H](CCCCN)NC(=O)[C@H](CC(=O)O)NC(=O)[C@H](CC(C)C)NC(=O)C(C)(C)NC(=O)[C@@H](NC(=O)[C@H](CO)NC(=O)[C@H](Cc1ccc(O)cc1)NC(=O)[C@H](CC(=O)O)NC(=O)[C@H](CO)NC(=O)[C@@H](NC(=O)[C@H](Cc1ccccc1)NC(=O)[C@@H](NC(=O)CNC(=O)[C@H](CC(=O)O)NC(=O)C(C)(C)NC(=O)[C@H](Cc1c[nH]cn1)NC(=O)CCCCCCCCCCCCCCC(=O)O)[C@@H](C)O)[C@@H](C)CC)[C@@H](C)O)C(=O)N[C@@H](CC(N)=O)C(=O)N[C@@H](Cc1c[nH]c2ccccc12)C(=O)N[C@@H](CC(C)C)C(=O)N[C@H](C(=O)N[C@@H](CCC(=O)O)C(=O)N[C@H](C(=O)N[C@@H](CCCCN)C(=O)N[C@H](C(=O)N[C@H](C(=O)N[C@@H](CCCCN)C(=O)O)[C@@H](C)O)[C@@H](C)CC)[C@@H](C)O)[C@@H](C)CC) [Compound no. 23] | 86 | 8.8 | 107
2 | {C16 diacid}-H[Aib]EGTFISDYST[Aib]LDNLAARDFINWLIQTKITK-OH (SMILES CC[C@H](C)[C@H](NC(=O)[C@H](Cc1ccccc1)NC(=O)[C@H](CC(=O)O)NC(=O)[C@H](CCCNC(=N)N)NC(=O)[C@H](C)NC(=O)[C@H](C)NC(=O)[C@H](CC(C)C)NC(=O)[C@H](CC(N)=O)NC(=O)[C@H](CC(=O)O)NC(=O)[C@H](CC(C)C)NC(=O)C(C)(C)NC(=O)[C@@H](NC(=O)[C@H](CO)NC(=O)[C@H](Cc1ccc(O)cc1)NC(=O)[C@H](CC(=O)O)NC(=O)[C@H](CO)NC(=O)[C@@H](NC(=O)[C@H](Cc1ccccc1)NC(=O)[C@@H](NC(=O)CNC(=O)[C@H](CCC(=O)O)NC(=O)C(C)(C)NC(=O)[C@H](Cc1c[nH]cn1)NC(=O)CCCCCCCCCCCCCCC(=O)O)[C@@H](C)O)[C@@H](C)CC)[C@@H](C)O)C(=O)N[C@@H](CC(N)=O)C(=O)N[C@@H](Cc1c[nH]c2ccccc12)C(=O)N[C@@H](CC(C)C)C(=O)N[C@H](C(=O)N[C@@H](CCC(N)=O)C(=O)N[C@H](C(=O)N[C@@H](CCCCN)C(=O)N[C@H](C(=O)N[C@H](C(=O)N[C@@H](CCCCN)C(=O)O)[C@@H](C)O)[C@@H](C)CC)[C@@H](C)O)[C@@H](C)CC) [Compound no. 19] | 81 | – | 98
3 | Palmitoyl-HADGTFISDYSTILELLAARDFINWLIQTKITKNDWKHNITQ-OH [Compound no. 15] | 70 | – | 106
4 | {C16 diacid}-H[Aib]DGTFISDYST[Aib]LDKLAARDFIEWLIQTKITK-OH (SMILES CC[C@H](C)[C@H](NC(=O)[C@H](Cc1ccccc1)NC(=O)[C@H](CC(=O)O)NC(=O)[C@H](CCCNC(=N)N)NC(=O)[C@H](C)NC(=O)[C@H](C)NC(=O)[C@H](CC(C)C)NC(=O)[C@H](CCCCN)NC(=O)[C@H](CC(=O)O)NC(=O)[C@H](CC(C)C)NC(=O)C(C)(C)NC(=O)[C@@H](NC(=O)[C@H](CO)NC(=O)[C@H](Cc1ccc(O)cc1)NC(=O)[C@H](CC(=O)O)NC(=O)[C@H](CO)NC(=O)[C@@H](NC(=O)[C@H](Cc1ccccc1)NC(=O)[C@@H](NC(=O)CNC(=O)[C@H](CC(=O)O)NC(=O)C(C)(C)NC(=O)[C@H](Cc1c[nH]cn1)NC(=O)CCCCCCCCCCCCCCC(=O)O)[C@@H](C)O)[C@@H](C)CC)[C@@H](C)O)C(=O)N[C@@H](CCC(=O)O)C(=O)N[C@@H](Cc1c[nH]c2ccccc12)C(=O)N[C@@H](CC(C)C)C(=O)N[C@H](C(=O)N[C@@H](CCC(N)=O)C(=O)N[C@H](C(=O)N[C@@H](CCCCN)C(=O)N[C@H](C(=O)N[C@H](C(=O)N[C@@H](CCCCN)C(=O)O)[C@@H](C)O)[C@@H](C)CC)[C@@H](C)O)[C@@H](C)CC) [Compound no. 22] | 95 | – | 91
5 | {C16 diacid}-H[Aib]DGTFISDYST[Aib]LDNLAARDFINWLIQTKITK-OH (SMILES CC[C@H](C)[C@H](NC(=O)[C@H](Cc1ccccc1)NC(=O)[C@H](CC(=O)O)NC(=O)[C@H](CCCNC(=N)N)NC(=O)[C@H](C)NC(=O)[C@H](C)NC(=O)[C@H](CC(C)C)NC(=O)[C@H](CC(N)=O)NC(=O)[C@H](CC(=O)O)NC(=O)[C@H](CC(C)C)NC(=O)C(C)(C)NC(=O)[C@@H](NC(=O)[C@H](CO)NC(=O)[C@H](Cc1ccc(O)cc1)NC(=O)[C@H](CC(=O)O)NC(=O)[C@H](CO)NC(=O)[C@@H](NC(=O)[C@H](Cc1ccccc1)NC(=O)[C@@H](NC(=O)CNC(=O)[C@H](CC(=O)O)NC(=O)C(C)(C)NC(=O)[C@H](Cc1c[nH]cn1)NC(=O)CCCCCCCCCCCCCCC(=O)O)[C@@H](C)O)[C@@H](C)CC)[C@@H](C)O)C(=O)N[C@@H](CC(N)=O)C(=O)N[C@@H](Cc1c[nH]c2ccccc12)C(=O)N[C@@H](CC(C)C)C(=O)N[C@H](C(=O)N[C@@H](CCC(N)=O)C(=O)N[C@H](C(=O)N[C@@H](CCCCN)C(=O)N[C@H](C(=O)N[C@H](C(=O)N[C@@H](CCCCN)C(=O)O)[C@@H](C)O)[C@@H](C)CC)[C@@H](C)O)[C@@H](C)CC) [Compound no. 17] | 90 | – | 98
6 | {C16 diacid}-H[Aib]DGTFISDYST[Aib]LDALAARDFIEWLIQTKITK-OH (SMILES CC[C@H](C)[C@H](NC(=O)[C@H](Cc1ccccc1)NC(=O)[C@H](CC(=O)O)NC(=O)[C@H](CCCNC(=N)N)NC(=O)[C@H](C)NC(=O)[C@H](C)NC(=O)[C@H](CC(C)C)NC(=O)[C@H](C)NC(=O)[C@H](CC(=O)O)NC(=O)[C@H](CC(C)C)NC(=O)C(C)(C)NC(=O)[C@@H](NC(=O)[C@H](CO)NC(=O)[C@H](Cc1ccc(O)cc1)NC(=O)[C@H](CC(=O)O)NC(=O)[C@H](CO)NC(=O)[C@@H](NC(=O)[C@H](Cc1ccccc1)NC(=O)[C@@H](NC(=O)CNC(=O)[C@H](CC(=O)O)NC(=O)C(C)(C)NC(=O)[C@H](Cc1c[nH]cn1)NC(=O)CCCCCCCCCCCCCCC(=O)O)[C@@H](C)O)[C@@H](C)CC)[C@@H](C)O)C(=O)N[C@@H](CCC(=O)O)C(=O)N[C@@H](Cc1c[nH]c2ccccc12)C(=O)N[C@@H](CC(C)C)C(=O)N[C@H](C(=O)N[C@@H](CCC(N)=O)C(=O)N[C@H](C(=O)N[C@@H](CCCCN)C(=O)N[C@H](C(=O)N[C@H](C(=O)N[C@@H](CCCCN)C(=O)O)[C@@H](C)O)[C@@H](C)CC)[C@@H](C)O)[C@@H](C)CC) [Compound no. 20] | 88 | – | 93
7 | {C16 diacid}-H[Aib]EGTFISDYST[Aib]LDKLAARDFINWLIQTKITK-OH (SMILES CC[C@H](C)[C@H](NC(=O)[C@H](Cc1ccccc1)NC(=O)[C@H](CC(=O)O)NC(=O)[C@H](CCCNC(=N)N)NC(=O)[C@H](C)NC(=O)[C@H](C)NC(=O)[C@H](CC(C)C)NC(=O)[C@H](CCCCN)NC(=O)[C@H](CC(=O)O)NC(=O)[C@H](CC(C)C)NC(=O)C(C)(C)NC(=O)[C@@H](NC(=O)[C@H](CO)NC(=O)[C@H](Cc1ccc(O)cc1)NC(=O)[C@H](CC(=O)O)NC(=O)[C@H](CO)NC(=O)[C@@H](NC(=O)[C@H](Cc1ccccc1)NC(=O)[C@@H](NC(=O)CNC(=O)[C@H](CCC(=O)O)NC(=O)C(C)(C)NC(=O)[C@H](Cc1c[nH]cn1)NC(=O)CCCCCCCCCCCCCCC(=O)O)[C@@H](C)O)[C@@H](C)CC)[C@@H](C)O)C(=O)N[C@@H](CC(N)=O)C(=O)N[C@@H](Cc1c[nH]c2ccccc12)C(=O)N[C@@H](CC(C)C)C(=O)N[C@H](C(=O)N[C@@H](CCC(N)=O)C(=O)N[C@H](C(=O)N[C@@H](CCCCN)C(=O)N[C@H](C(=O)N[C@H](C(=O)N[C@@H](CCCCN)C(=O)O)[C@@H](C)O)[C@@H](C)CC)[C@@H](C)O)[C@@H](C)CC) [Compound no. 21] | 58 | – | 86
8 | Palmitoyl-HADGTFISDYSTILD[Aib]LAARDFINWLIQTKITKNDWKHNITQ-OH [Compound no. 16] | 64 | – | 99
